In patent US20200339678A1 (RIGEL PHARMACEUTICALS, published 2020):

T1: His-tagged recombinant Mouse TIGIT (mouse, UniProt P86176 29-148, limits assumed)
T1 construct: not shown: His tag
T1 sequence (looked up): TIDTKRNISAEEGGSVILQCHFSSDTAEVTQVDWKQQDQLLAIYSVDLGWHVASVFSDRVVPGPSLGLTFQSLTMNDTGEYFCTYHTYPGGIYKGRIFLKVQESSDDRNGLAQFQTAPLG

B1: Ab11 (Fab, V domains shown)
VH: EVQLLESGGGLVQPGGSLRLSCAASGFTFSSYGMHWVRQAPGKGLEWVASISSNGGYTSYADSVKGRFTISRDNSKNTLYLQMNSLRAEDTAVYYCARVPYGYWIDYWGQGTLVTVSS
VL: not shown
notes: ARV set
B2: Ab88 (Fab, V domains shown)
VH: EVQLLESGGGLVQPGGSLRLSCAASGFTFSSYSMSWVRQAPGKGLEWVASISSSAGTTSYADSVKGRFTISRDNSKNTLYLQMNSLRAEDTAVYYCARVPYGVWIDYWGQGTLVTVSS
VL: not shown
notes: ARV set
B3: Ab45 (Fab, V domains shown)
VH: EVQLLESGGGLVQPGGSLRLSCAASGFTFSSYGMNWVRQAPGKGLEWVARISSSGSYIGYADSVKGRFTISRDNSKNTLYLQMNSLRAEDTAVYYCARGPYGYWLDYWGQGTLVTVSS
VL: not shown
notes: ARG set
B4: Ab9 (Fab, V domains shown)
VH: EVQLLESGGGLVQPGGSLRLSCAASGFTFDSYSMHWVRQAPGKGLEWVANIKSSGGYISYADSVKGRFTISRDNSKNTLYLQMNSLRAEDTAVYYCARGPYDVWMDYWGQGTLVTVSS
VL: not shown
notes: ARG set
B5: Ab58 (Fab, V domains shown)
VH: EVQLLESGGGLVQPGGSLRLSCAASGFTFSSYAMSWVRQAPGKGLEWVSSIKSSAGSSYYADSVKGRFTISRDNSKNTLYLQMNSLRAEDTAVYYCAREPYDVWIDYWGQGTLVTVSS
VL: not shown
notes: ARE set
B6: Ab14 (Fab, V domains shown)
VH: EVQLLESGGGLVQPGGSLRLSCAASGFTFSSYGMHWVRQAPGKGLEWVSSISSSGGTKGYADSVKGRFTISRDNSKNTLYLQMNSLRAEDTAVYYCARVPYDVWMDYWGQGTLVTVSS
VL: not shown
notes: ARV set
B7: Ab167 (Fab, V domains shown)
VH: EVQLLESGGGLVQPGGSLRLSCAASGFTFSSYAMHWVRQAPGKGLEWVASISGNAGSSSYADSVKGRFTISRDNSKNTLYLQMNSLRAEDTAVYYCARVPYGVWIDYWGQGTLVTVSS
VL: not shown
notes: ARV set
B8: Ab8 (Fab, V domains shown)
VH: EVQLLESGGGLVQPGGSLRLSCAASGFTFSSYAMSWVRQAPGKGLEWVADIKSNGGYTYYADSVKGRFTISRDNSKNTLYLQMNSLRAEDTAVYYCARVPYGYWLDYWGQGTLVTVSS
VL: not shown
notes: ARV set
B9: Ab190 (Fab, V domains shown)
VH: EVQLLESGGGLVQPGGSLRLSCAASGFTFSSYAMHWVRQAPGKGLEWVAAIKSSAGYSYYADSVKGRFTISRDNSKNTLYLQMNSLRAEDTAVYYCARVPYGVWIDYWGQGTLVTVSS
VL: not shown
notes: ARV set
B10: Ab36 (Fab, V domains shown)
VH: EVQLLESGGGLVQPGGSLRLSCAASGFTFSSYAMSWVRQAPGKGLEWVASIKSSGSYKSYADSVKGRFTISRDNSKNTLYLQMNSLRAEDTAVYYCAREPYSTWLDYWGQGTLVTVSS
VL: not shown
notes: ARE set
B11: Ab196 (Fab, V domains shown)
VH: EVQLLESGGGLVQPGGSLRLSCAASGFTFSSYSMNWVRQAPGKGLEWVSSIKGSAGTTSYADSVKGRFTISRDNSKNTLYLQMNSLRAEDTAVYYCAREPYSVWMDYWGQGTLVTVSS
VL: not shown
notes: ARE set
B12: Ab106 (Fab, V domains shown)
VH: EVQLLESGGGLVQPGGSLRLSCAASGFTFSSYAMNWVRQAPGKGLEWVASIKSSTGTISYADSVKGRFTISRDNSKNTLYLQMNSLRAEDTAVYYCAREPYSVWIDYWGQGTLVTVSS
VL: not shown
notes: ARE set
B13: Ab164 (Fab, V domains shown)
VH: EVQLLESGGGLVQPGGSLRLSCAASGFTFSSYAMSWVRQAPGKGLEWVSYINSNTGSIGYADSVKGRFTISRDNSKNTLYLQMNSLRAEDTAVYYCAREPYGVWMDYWGQGTLVTVSS
VL: not shown
notes: ARE set
B14: Ab62 (Fab, V domains shown)
VH: EVQLLESGGGLVQPGGSLRLSCAASGFTFSSYSMSWVRQAPGKGLEWVASISSSAGYSYYADSVKGRFTISRDNSKNTLYLQMNSLRAEDTAVYYCARVPYDVWIDYWGQGTLVTVSS
VL: not shown
notes: ARV set
B15: Ab30 (Fab, V domains shown)
VH: EVQLLESGGGLVQPGGSLRLSCAASGFTFSSYGMHWVRQAPGKGLEWVASIKSNSGNTGYADSVKGRFTISRDNSKNTLYLQMNSLRAEDTAVYYCARVPYSVWMDYWGQGTLVTVSS
VL: not shown
notes: ARV set
B16: Ab44 (Fab, V domains shown)
VH: EVQLLESGGGLVQPGGSLRLSCAASGFTFSSYSMHWVRQAPGKGLEWVSAISSDGSYISYADSVKGRFTISRDNSKNTLYLQMNSLRAEDTAVYYCARVPYDVWFDYWGQGTLVTVSS
VL: not shown
notes: ARV set
B17: Ab51 (Fab, V domains shown)
VH: EVQLLESGGGLVQPGGSLRLSCAASGFTFSSYAMSWVRQAPGKGLEWVSSIKSNSGSKSYADSVKGRFTISRDNSKNTLYLQMNSLRAEDTAVYYCAREPYSVWMDYWGQGTLVTVSS
VL: not shown
notes: ARE set
B18: Ab63 (Fab, V domains shown)
VH: EVQLLESGGGLVQPGGSLRLSCAASGFTFSSYSMHWVRQAPGKGLEWVASISGSTGTSYYADSVKGRFTISRDNSKNTLYLQMNSLRAEDTAVYYCARVPYGYWIDYWGQGTLVTVSS
VL: not shown
notes: ARV set
B19: Ab120 (Fab, V domains shown)
VH: EVQLLESGGGLVQPGGSLRLSCAASGFTFSSYSMNWVRQAPGKGLEWVSSINSNAGTIYYADSVKGRFTISRDNSKNTLYLQMNSLRAEDTAVYYCARVPYDYWIDYWGQGTLVTVSS
VL: not shown
notes: ARV set
B20: Ab112 (Fab, V domains shown)
VH: EVQLLESGGGLVQPGGSLRLSCAASGFTFSSYAMSWVRQAPGKGLEWVASISSNTGSIYYADSVKGRFTISRDNSKNTLYLQMNSLRAEDTAVYYCARVPYSYWLDYWGQGTLVTVSS
VL: not shown
notes: ARV set
B21: Ab182 (Fab, V domains shown)
VH: EVQLLESGGGLVQPGGSLRLSCAASGFTFSSYSMHWVRQAPGKGLEWVASISSNTGTTGYADSVKGRFTISRDNSKNTLYLQMNSLRAEDTAVYYCARVPYGYWIDYWGQGTLVTVSS
VL: not shown
notes: ARV set
B22: Ab118 (Fab, V domains shown)
VH: EVQLLESGGGLVQPGGSLRLSCAASGFTFSSYAMSWVRQAPGKGLEWVSSINSNAGTSYYADSVKGRFTISRDNSKNTLYLQMNSLRAEDTAVYYCARVPYGYWMDYWGQGTLVTVSS
VL: not shown
notes: ARV set
B23: Ab42 (Fab, V domains shown)
VH: EVQLLESGGGLVQPGGSLRLSCAASGFTFSSYGMHWVRQAPGKGLEWVARINSNGGSKSYADSVKGRFTISRDNSKNTLYLQMNSLRAEDTAVYYCARGPYGYWFDYWGQGTLVTVSS
VL: not shown
notes: ARG set
B24: Ab31 (Fab, V domains shown)
VH: EVQLLESGGGLVQPGGSLRLSCAASGFTFSSYTMHWVRQAPGKGLEWVANIKSSSSTKYYADSVKGRFTISRDNSKNTLYLQMNSLRAEDTAVYYCARGPYDVWLDYWGQGTLVTVSS
VL: not shown
notes: ARG set
B25: Ab192 (Fab, V domains shown)
VH: EVQLLESGGGLVQPGGSLRLSCAASGFTFSSYAMHWVRQAPGKGLEWVSSISSDTGYIGYADSVKGRFTISRDNSKNTLYLQMNSLRAEDTAVYYCARVPYDVWIDYWGQGTLVTVSS
VL: not shown
notes: ARV set
B26: Ab37 (Fab, V domains shown)
VH: EVQLLESGGGLVQPGGSLRLSCAASGFTFSSYGMNWVRQAPGKGLEWVSDINSNSGSTSYADSVKGRFTISRDNSKNTLYLQMNSLRAEDTAVYYCARGPYGVWLDYWGQGTLVTVSS
VL: not shown
notes: ARG set
B27: Ab26 (Fab, V domains shown)
VH: EVQLLESGGGLVQPGGSLRLSCAASGFTFSSYSMSWVRQAPGKGLEWVADIKSSGSTKSYADSVKGRFTISRDNSKNTLYLQMNSLRAEDTAVYYCAREPYDYWMDYWGQGTLVTVSS
VL: not shown
notes: ARE set
B28: Ab35 (Fab, V domains shown)
VH: EVQLLESGGGLVQPGGSLRLSCAASGFTFSSYGMHWVRQAPGKGLEWVASISSSSGYKYYADSVKGRFTISRDNSKNTLYLQMNSLRAEDTAVYYCARVPYSYWMDYWGQGTLVTVSS
VL: not shown
notes: ARV set
B29: Ab25 (Fab, V domains shown)
VH: EVQLLESGGGLVQPGGSLRLSCAASGFTFSSYGMHWVRQAPGKGLEWVAAIKSSGSSTSYADSVKGRFTISRDNSKNTLYLQMNSLRAEDTAVYYCARVPYGYWMDYWGQGTLVTVSS
VL: not shown
notes: ARV set
B30: Ab126 (Fab, V domains shown)
VH: EVQLLESGGGLVQPGGSLRLSCAASGFTFSSYAMHWVRQAPGKGLEWVASISSSTGSIGYADSVKGRFTISRDNSKNTLYLQMNSLRAEDTAVYYCARVPYSYWMDYWGQGTLVTVSS
VL: not shown
notes: ARV set
B31: Ab33 (Fab, V domains shown)
VH: EVQLLESGGGLVQPGGSLRLSCAASGFTFSSYGMHWVRQAPGKGLEWVSDISSNGGTIYYADSVKGRFTISRDNSKNTLYLQMNSLRAEDTAVYYCARGPYGVWLDYWGQGTLVTVSS
VL: not shown
notes: ARG set
B32: Ab5 (Fab, V domains shown)
VH: EVQLLESGGGLVQPGGSLRLSCAASGFTFSDYSMNWVRQAPGKGLEWVALIKSNSGSTSYADSVKGRFTISRDNSKNTLYLQMNSLRAEDTAVYYCARGPYDVWMDYWGQGTLVTVSS
VL: not shown
notes: ARG set
B33: Ab125 (Fab, V domains shown)
VH: EVQLLESGGGLVQPGGSLRLSCAASGFTFSSYSMHWVRQAPGKGLEWVASIKGNAGTTYYADSVKGRFTISRDNSKNTLYLQMNSLRAEDTAVYYCAKVPYDVWMDYWGQGTLVTVSS
VL: not shown
notes: ARV set

The binders below were run against T1, His-tagged recombinant Mouse TIGIT (assay: ELISA, coated His-tagged mouse TIGIT).
Description: Binding affinities for antigen binding to anti-TIGIT monoclonal antibodies were determined by ELISA. […] Antibodies to be tested were diluted to 1 μM in PBS buffer containing 1% BSA and diluted 3-fold in a 10-point curve. […] Detection of the secondary antibody was determined using streptavidin-HRP and TMB reagent. All assays were performed at room temperature. Curve-fitting software was used to determine the EC₅₀ for each antibody.
In the case of B1, the EC50 is reported as 359 nM. B2 was tested, and the EC50 was 407 nM. B3 was tested, and the EC50 was 48 nM. B4 was tested, and the EC50 was 181 nM. For B5, the EC50 was 170 nM. Work on B6 yielded an EC50 of 169 nM. Binder B7 has an EC50 of 61.2 nM. B8 gave an EC50 of 149 nM. Work on B9 yielded an EC50 of 23.4 nM. Work on B10 yielded an EC50 of 470 nM. B11 showed an EC50 of 19.5 nM. B12 gave an EC50 of 125 nM. B13 was tested, and the EC50 was 289 nM. For B14, the EC50 was 361 nM. Work on B15 yielded an EC50 of 135 nM. In the case of B16, the EC50 is reported as 128 nM. In the case of B17, the EC50 is reported as 79.8 nM. B18 showed an EC50 of 178 nM. Binder B19 has an EC50 of 254 nM. B20 gave an EC50 of 213 nM. Work on B21 yielded an EC50 of 200 nM. B22 was tested, and the EC50 was 110 nM. B23 showed an EC50 of 60.5 nM. Work on B24 yielded an EC50 of 56.9 nM. With B25 the EC50 was 295 nM. Binder B26 has an EC50 of 221 nM. Binder B27 has an EC50 of 47.5 nM. For B28, the EC50 was 357 nM. B29 gave an EC50 of 20.9 nM. B30 showed an EC50 of 64.1 nM. Work on B31 yielded an EC50 of 85.4 nM. Work on B32 yielded an EC50 of 322 nM. For B33, the EC50 was 150 nM.
